The target of the assay is Recombinant soluble integrin αvβ3 (UniProt P06756). In words: SPR. Background: SPR reads the build-up and loss of mass on a sensor chip optically.

This note sets out measurements from publication doi:10.1101/2023.11.14.567104.

Turning to “Heparin-binding domain (HBD, residues 111-165) of VEGF165, wild type (domain or fragment)”, the Kd (in general, the constant that tells how readily two partners part at equilibrium) is 470 nM.
